Changes are numbered by the printed parent chain. Numbers in names are those of the source.
T1: FcgRIIa R extracellular domain with C-terminal His tag (human, UniProt P12318 34-217)
T1 construct: extracellular domain; also called FcγRIIa R; FcγRIIa type R; not shown: His tag attached to the C terminus
T1 sequence (looked up): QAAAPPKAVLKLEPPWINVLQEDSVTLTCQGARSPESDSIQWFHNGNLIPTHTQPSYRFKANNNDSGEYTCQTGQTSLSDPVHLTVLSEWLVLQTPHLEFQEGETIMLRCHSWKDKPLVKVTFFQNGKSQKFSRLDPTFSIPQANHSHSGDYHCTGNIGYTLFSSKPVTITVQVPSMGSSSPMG

T2: FcgRIIa H extracellular domain with C-terminal His tag (human, UniProt P12318 34-217)
T2 construct: extracellular domain; also called FcγRIIa H; FcγRIIa type H; not shown: His tag attached to the C terminus
T2 sequence (looked up): T1 sequence (looked up) with R134H

T3: FcgRIIb extracellular domain with C-terminal His tag (human, UniProt P31994 43-217)
T3 construct: extracellular domain; also called FcγRIIb; not shown: His tag attached to the C terminus
T3 sequence (looked up): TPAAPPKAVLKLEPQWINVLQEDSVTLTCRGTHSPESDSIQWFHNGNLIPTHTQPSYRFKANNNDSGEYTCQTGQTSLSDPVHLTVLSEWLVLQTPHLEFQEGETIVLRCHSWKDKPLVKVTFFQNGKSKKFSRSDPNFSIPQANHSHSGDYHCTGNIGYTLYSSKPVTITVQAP

T4: FcγRIIb (extracellular domain, C-terminal His tag) (human, UniProt P31994 43-217)
T4 construct: extracellular domain; Soluble receptor used as analyte in Biacore; also called FcgRIIb; 2b; not shown: His tag attached to the C terminus
T4 sequence (looked up): T3 sequence (looked up)

T5: FcγRIIa R (extracellular domain, C-terminal His tag) (human, UniProt P12318 34-217)
T5 construct: extracellular domain; Soluble receptor used as analyte in Biacore; also called FcgRIIa R; 2aR; not shown: His tag attached to the C terminus
T5 sequence (looked up): T1 sequence (looked up)

B1: GpH7-Kn033/GpH7-Hl033/GpL16-k0 (antibody, human IgG1, kappa)
heavy 1: not shown
heavy 2: not shown
light: DIVMTQSPLSLPVTPGEPASISCQASESLVHSNRNTYLHWYLQKPGQSPQLLIYKVSNRFSGVPDRFSGSGSGTDFTLKISRVEAEDVGVYYCSQNTHVPPTFGQGTKVEIERTVAAPSVFIFPPSDEQLKSGTASVVCLLNNFYPREAKVQWKVDNALQSGNSQESVTEQDSKDSTYSLSSTLTLSKADYEKHKVYACEVTHQGLSSPVTKSFNRGEC
notes: Anti-glypican-3 IgG1 with knobs-into-holes only (knob Y349C/T366W; hole D356C/T366S/L368A/Y407V); also called Kn033/Hl033
B2: GpH7-Kn056/GpH7-Hl055/GpL16-k0 (antibody, human IgG1, kappa)
heavy 1: QVQLVQSGAEVKKPGASVTVSCKASGYTFTDYEMHWIRQPPGEGLEWIGAIDPKTGDTAYSESFQDRVTLTADKSTSTAYMELSSLTSEDTAVYYCTRFYSYTYWGQGTLVTVSSASTKGPSVFPLAPSSKSTSGGTAALGCLVKDYFPEPVTVSWNSGALTSGVHTFPAVLQSSGLYSLSSVVTVPSSSLGTQTYICNVNHKPSNTKVDKKVEPKSCDKTHTCPPCPAPEYYAGPSVFLFPPKPKDTLMISRTPEVTCVVVDVSDEDPEVKFNWYVDGVEVHNAKTKPREELYNATYRVVSVLTVLHQDWLNGKEYKCKVSNKALPAPIEKTISKAKGQPREPQVCTLPPSRDELTKNQVSLWCLVKGFYPSDIAVEWESNGQPENNYKTTPPVLDSDGSFFLYSKLTVDKSRWQQGNVFSCSVMHEALHNHYTQKSLSLSP
heavy 2: QVQLVQSGAEVKKPGASVTVSCKASGYTFTDYEMHWIRQPPGEGLEWIGAIDPKTGDTAYSESFQDRVTLTADKSTSTAYMELSSLTSEDTAVYYCTRFYSYTYWGQGTLVTVSSASTKGPSVFPLAPSSKSTSGGTAALGCLVKDYFPEPVTVSWNSGALTSGVHTFPAVLQSSGLYSLSSVVTVPSSSLGTQTYICNVNHKPSNTKVDKKVEPKSCDKTHTCPPCPAPELLAGPDVFLFPPKPKDTLMISRTPEVTCVVVDVSHEDPEVKFNWYVDGVEVHNAKTKPREELYNSTYRVVSVLTVLHQDWLNGKEYKCKVSNKALPMPEEKTISKAKGQPREPQVYTLPPSRCELTKNQVSLSCAVKGFYPSDIAVEWESNGQPENNYKTTPPVLDSDGSFFLVSKLTVDKSRWQQGNVFSCSVMHEALHNHYTQKSLSLSP
light: B1 light
notes: Knob chain L234Y/L235Y/G236A/H268D/Q295L/S298A; hole chain G236A/S239D/Q295L/A330M/I332E; also called Kn056/Hl055
B3: GpH7-Kn045/GpH7-Hl055/GpL16-k0 (antibody, human IgG1, kappa)
heavy 1: B2 heavy 1 with L293Q
heavy 2: B2 heavy 2
light: B1 light
notes: Knob chain L234Y/L235Y/G236A/H268D/S298A; hole chain G236A/S239D/Q295L/A330M/I332E; also called Kn045/Hl055
B4: GpH7-Kn032/GpH7-Hl032/GpL16-k0 (antibody, human IgG1, kappa)
heavy 1: B2 heavy 2 with A234G, L293Q, M328L, Y347C, C354D, S364W, A366L, V405Y
heavy 2: B2 heavy 2 with A234G, L293Q, M328L
light: B1 light
notes: S239D/A330L/I332E in both H chains (called homodimerized); also called Kn032/Hl032
B5: GpH7-Kn037/GpH7-Hl036/GpL16-k0 (antibody, human IgG1, kappa)
heavy 1: B2 heavy 2 with L293Q, M328A, Y347C, C354D, S364W, A366L, V405Y
heavy 2: B2 heavy 2 with L293Q, M328A
light: B1 light
notes: G236A/S239D/I332E in both H chains (called homodimerized); also called Kn037/Hl036
B6: GpH7-Kn045/GpH7-Hl048/GpL16-k0 (antibody, human IgG1, kappa)
heavy 1: B2 heavy 1 with L293Q
heavy 2: B2 heavy 2 with L293Q, M328K
light: B1 light
notes: Knob chain L234Y/L235Y/G236A/H268D/S298A; hole chain G236A/S239D/A330K/I332E; also called Kn045/Hl048
B7: H240-G1d/L73-k0 (antibody, human IgG1, kappa)
heavy: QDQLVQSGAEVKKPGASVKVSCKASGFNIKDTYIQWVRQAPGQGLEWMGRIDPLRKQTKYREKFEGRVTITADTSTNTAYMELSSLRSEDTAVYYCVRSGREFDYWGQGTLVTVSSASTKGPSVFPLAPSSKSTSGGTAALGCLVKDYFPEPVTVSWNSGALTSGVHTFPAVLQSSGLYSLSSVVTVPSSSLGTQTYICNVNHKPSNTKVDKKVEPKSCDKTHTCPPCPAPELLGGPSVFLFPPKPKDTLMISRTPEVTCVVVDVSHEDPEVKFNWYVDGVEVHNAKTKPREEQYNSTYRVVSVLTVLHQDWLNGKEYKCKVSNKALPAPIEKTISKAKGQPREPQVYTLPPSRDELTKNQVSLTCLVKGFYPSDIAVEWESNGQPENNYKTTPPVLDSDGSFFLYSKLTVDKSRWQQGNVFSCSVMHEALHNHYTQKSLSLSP
light: DIQMTQSPSSLSASVGDRVTITCRASQDIHKYIAWYQQKPGQAPRLLIQYTSTLQPGVPSRFSGSGSGTDYTFTISSLQPEDIATYYCLQYEQLRTFGGGTKVEIKRTVAAPSVFIFPPSDEQLKSGTASVVCLLNNFYPREAKVQWKVDNALQSGNSQESVTEQDSKDSTYSLSSTLTLSKADYEKHKVYACEVTHQGLSSPVTKSFNRGEC
notes: Anti-epiregulin (EREG) IgG1; also called native IgG1 (anti-epiregulin)
B8: heterodimerized antibody GpH7-A5/GpH7-B3 variant L328_13S/GpL16-k0 (antibody, human IgG1, kappa)
heavy 1: not shown
heavy 2: not shown
light: B1 light
notes: Anti-glypican-3 IgG1 with the alteration in only one H chain (the GpH7-B3 chain); also called He Ab
B9: heterodimerized antibody GpH7-A5/GpH7-B3 variant I332_11K/GpL16-k0 (antibody, human IgG1, kappa)
heavy 1: not shown
heavy 2: not shown
light: B1 light
notes: as for B8
B10: heterodimerized antibody GpH7-A5/GpH7-B3 variant L328_20W/GpL16-k0 (antibody, human IgG1, kappa)
heavy 1: not shown
heavy 2: not shown
light: B1 light
notes: as for B8
B11: heterodimerized antibody GpH7-A5/GpH7-B3 variant L328_15Y/GpL16-k0 (antibody, human IgG1, kappa)
heavy 1: not shown
heavy 2: not shown
light: B1 light
notes: as for B8
B12: heterodimerized antibody GpH7-A5/GpH7-B3 variant L328_18N/GpL16-k0 (antibody, human IgG1, kappa)
heavy 1: not shown
heavy 2: not shown
light: B1 light
notes: as for B8

These binders were tested against T1, FcgRIIa R extracellular domain with … (assay: ratio of SPR (Biacore) KDs, FcγRIIb as reference; antibody captured on chip, FcγR as analyte).
Protocol: (§1) These antibodies were assessed for the binding activity to each FcγR according to the method described in Reference Example 2.
(§2) Analysis of interaction between objective antibody and the FcγR was carried out using Biacore T100 (GE Healthcare). HBS-EP+ (GE Healthcare) was used as the running buffer, and the measurement temperature was set to 25° C. Chips produced by immobilizing the antigen peptide by the amine coupling method to a Series S Sencor Chip CM5 (GE Healthcare), or alternatively, chips produced by allowing preliminarily biotinylated antigen peptides to interact with and immobilize onto a Series S Sensor Chip SA (certified) (GE Healthcare) were used. Antibodies of interest were captured onto an antigen peptide-immobilized chip, and allowed to interact to each FcγR diluted with running buffer. To regenerate and repeatedly use the chip, the antibodies captured on the chip were washed off by reacting 10 mM glycine-HCl, pH 1.5.
(§3) The FcγR-binding activity of each antibody was assessed primarily using as an indicator the FcγR-binding activity and dissociation constant for FcγR.

Binder	A/I ratio (KD for FcγRIIb / KD for FcγRIIa R)
B1	4.9
B2	16
B3	18
B4	1.8
B5	13
B6	22

Each binder was assayed against T2, FcgRIIa H extracellular domain with … in the same assay as above.
Protocol: as §1, §2, §3

Binder	A/I ratio (KD for FcγRIIb / KD for FcγRIIa H)
B1	6.2
B2	8.7
B3	8.3
B4	0.93
B5	8.6
B6	9.5

These binders were tested against T6, FcgRIIIa F extracellular domain with C-terminal His tag (human, UniProt P08637 17-208) (assay: SPR (Biacore), antibody captured on chip, FcγR extracellular domain as analyte, kinetic analysis).
T6 construct: extracellular domain; also called FcγRIIIa F; FcγRIIIa (F158); not shown: His tag attached to the C terminus
Protocol: (§4) Analysis of interaction between obj ective antibody and the FcγR was carried out using Biacore T100 (GE Healthcare), Biacore T200, Biacore A100, and Biacore 4000. HBS-EP+ (GE Healthcare) was used as the running buffer, and the measurement temperature was set to 25° C. Chips produced by immobilizing the antigen peptide by the amine coupling method to a Series S sensor Chip CM5 (GE Healthcare), chips produced by allowing preliminarily biotinylated antigen peptides to interact with and immobilize onto a Series S Sensor Chip SA (certified) (GE Healthcare), chips produced by immobilizing Protein L (ACTIGEN, BioVision) to Series S Sencor Chip CM5 (GE Healthcare), or chips produced by immobilizing Protein A/G (Thermo Scientific) to Series S Sencor Chip CM5 (GE Healthcare) were used. Antibodies of interest were captured onto these chips, and allowed to interact to each FcγR diluted with running buffer. To regenerate and repeatedly use the chip, the antibodies captured onto the chip were washed off by reacting 10 mM glycine-HCl, pH 1.5.

T6 sequence (P08637 17-208): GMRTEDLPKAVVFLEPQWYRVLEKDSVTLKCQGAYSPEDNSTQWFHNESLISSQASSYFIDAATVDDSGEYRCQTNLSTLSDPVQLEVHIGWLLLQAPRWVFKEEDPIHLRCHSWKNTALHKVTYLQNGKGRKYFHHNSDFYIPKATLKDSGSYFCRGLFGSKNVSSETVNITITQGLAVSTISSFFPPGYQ

Binder	Kd [nM]
B7	1400

The binders below were run against T7, FcgRIa extracellular domain with C-terminal His tag (human, UniProt P12314 16-292) in the same assay as above.
T7 construct: extracellular domain; Expressed in FreeStyle293 cells; used as analyte in Biacore; also called FcγRIa; FcγRI; not shown: His tag attached to the C terminus
Protocol: as §4

T7 sequence (P12314 16-292): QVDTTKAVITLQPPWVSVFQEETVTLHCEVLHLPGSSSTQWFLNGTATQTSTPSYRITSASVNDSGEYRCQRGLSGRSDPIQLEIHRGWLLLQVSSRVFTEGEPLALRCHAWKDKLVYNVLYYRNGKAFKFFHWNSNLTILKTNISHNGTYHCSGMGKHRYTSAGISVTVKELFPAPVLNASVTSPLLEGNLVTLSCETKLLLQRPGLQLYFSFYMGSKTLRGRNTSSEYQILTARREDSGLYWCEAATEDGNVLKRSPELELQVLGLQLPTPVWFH

Binder	Kd [nM]
B7	0.23

Each binder was assayed against T8, FcgRIIIa V extracellular domain with C-terminal His tag (human, UniProt P08637 17-208) in the same assay as above.
T8 construct: extracellular domain; also called FcγRIIIa V; FcγRIIIa (V158); not shown: His tag attached to the C terminus
Protocol: as §4

T8 sequence (P08637 17-208 F176V): as the sequence (P08637 17-208) above, with F160V counted along it

Binder	Kd [nM]
B7	310

Each binder was assayed against T1, FcgRIIa R extracellular domain with … in the same assay as above.
Protocol: as §4

Binder	Kd [nM]
B7	880

What follows are binders tested against T2, FcgRIIa H extracellular domain with … in the same assay as above.
Protocol: as §4

Binder	Kd [nM]
B7	660

These binders were tested against T3, FcgRIIb extracellular domain with … in the same assay as above.
Protocol: as §4

Binder	Kd [nM]
B7	6000

What follows are binders tested against T4, FcγRIIb (extracellular domain, …) (assay: SPR (Biacore T100), antibody captured on antigen peptide chip, FcγR as analyte; relative binding amount).
Protocol: (§5) The heterodimerized antibodies He Abs in which one of the H chains was introduced with an alteration were assayed for their binding activities to each activating FcγR and inhibitory FcγR according to the method described in Example 4. […] The activating FcγRs in FIGS. 26, 27, 28, and 29 are FcγRIa, FcγRIIa (R), FcγRIIa (H), and FcγRIIIa, respectively.
as §2

Binder	He/Con_2b (IIb binding)
B8	149 % of control (GpH7-A5/GpH7-B3/GpL16-k0 = 100)
B9	70.9 % of control (GpH7-A5/GpH7-B3/GpL16-k0 = 100)
B10	235 % of control (GpH7-A5/GpH7-B3/GpL16-k0 = 100)
B11	193 % of control (GpH7-A5/GpH7-B3/GpL16-k0 = 100)
B12	80.8 % of control (GpH7-A5/GpH7-B3/GpL16-k0 = 100)

What follows are binders tested against T5, FcγRIIa R (extracellular domain, …) in the same assay as above.
Protocol: as §5, §2

Binder	He/Con_2aR (IIaR binding)
B8	117 % of control (GpH7-A5/GpH7-B3/GpL16-k0 = 100)
B9	43.1 % of control (GpH7-A5/GpH7-B3/GpL16-k0 = 100)
B10	155 % of control (GpH7-A5/GpH7-B3/GpL16-k0 = 100)
B11	136 % of control (GpH7-A5/GpH7-B3/GpL16-k0 = 100)
B12	59.4 % of control (GpH7-A5/GpH7-B3/GpL16-k0 = 100)

These binders were tested against T5, FcγRIIa R (extracellular domain, …) (assay: SPR (Biacore); He/Con for FcγRIIa R divided by He/Con for FcγRIIb).
Protocol: as §5, §2

Binder	He_2aR/2b (IIaR/IIb) [ratio]
B8	0.78
B9	0.61
B10	0.66
B11	0.7
B12	0.73
